Consider two molecules from patent US20260015399A1 (Boehringer Ingelheim, published 2026).

Assay [1] deals with T1, human NPY2 receptor (human, UniProt P49146 1-381).
T1 construct: whole, on cells; also called hNPY2-R; hNPY2R
T1 sequence (looked up): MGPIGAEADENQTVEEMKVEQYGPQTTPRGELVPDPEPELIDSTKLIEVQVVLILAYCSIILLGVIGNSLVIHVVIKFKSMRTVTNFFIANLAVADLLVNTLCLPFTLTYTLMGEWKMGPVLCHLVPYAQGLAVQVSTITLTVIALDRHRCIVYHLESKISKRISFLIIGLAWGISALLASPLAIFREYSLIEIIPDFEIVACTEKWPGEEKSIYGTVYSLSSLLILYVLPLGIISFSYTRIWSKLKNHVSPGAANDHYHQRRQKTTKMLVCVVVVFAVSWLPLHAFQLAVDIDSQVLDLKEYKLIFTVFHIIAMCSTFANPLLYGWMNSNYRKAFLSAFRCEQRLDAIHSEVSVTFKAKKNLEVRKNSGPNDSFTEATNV
The assay can be described thus: RLB: displacement of 125I-PYY(1-36) from hNPY2R membranes.

Assay [2] addresses T2, human NPY5 receptor (human, UniProt Q15761 1-445).
T2 sequence (looked up): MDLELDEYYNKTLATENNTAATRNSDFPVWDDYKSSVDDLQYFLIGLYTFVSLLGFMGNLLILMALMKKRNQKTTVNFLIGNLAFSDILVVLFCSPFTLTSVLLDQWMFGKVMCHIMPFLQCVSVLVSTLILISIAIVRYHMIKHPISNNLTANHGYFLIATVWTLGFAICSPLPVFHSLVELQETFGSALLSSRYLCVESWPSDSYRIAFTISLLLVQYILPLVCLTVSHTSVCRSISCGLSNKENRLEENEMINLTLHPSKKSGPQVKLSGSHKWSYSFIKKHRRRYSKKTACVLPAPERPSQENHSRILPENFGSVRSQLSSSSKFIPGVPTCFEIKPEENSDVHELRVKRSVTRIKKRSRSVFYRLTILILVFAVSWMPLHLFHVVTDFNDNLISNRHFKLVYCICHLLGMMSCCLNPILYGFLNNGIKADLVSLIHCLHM
The assay can be described thus: cell-based or functional assay.

The target in assay [3] is T1, human NPY2 receptor. The experiment in a line: cell-based or functional assay.
The target in assay [4] is T3, human NPY1 receptor (human, UniProt P25929 1-384).
T3 sequence (looked up): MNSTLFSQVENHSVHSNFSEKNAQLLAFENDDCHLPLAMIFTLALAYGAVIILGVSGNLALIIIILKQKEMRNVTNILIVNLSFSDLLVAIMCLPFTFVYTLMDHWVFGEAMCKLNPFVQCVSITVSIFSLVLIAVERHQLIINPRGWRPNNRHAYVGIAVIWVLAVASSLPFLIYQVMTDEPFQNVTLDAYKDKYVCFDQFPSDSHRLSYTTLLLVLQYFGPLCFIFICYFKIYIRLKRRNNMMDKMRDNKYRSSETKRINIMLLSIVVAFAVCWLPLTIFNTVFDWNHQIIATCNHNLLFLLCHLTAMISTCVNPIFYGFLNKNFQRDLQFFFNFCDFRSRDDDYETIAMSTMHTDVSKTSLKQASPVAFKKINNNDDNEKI
The assay can be described thus: cell-based or functional assay.

The target in assay [5] is human NPY4 receptor (human, UniProt P50391 1-375). The assay can be described thus: cell-based or functional assay.
Sequence of human NPY4 receptor (P50391 whole entry): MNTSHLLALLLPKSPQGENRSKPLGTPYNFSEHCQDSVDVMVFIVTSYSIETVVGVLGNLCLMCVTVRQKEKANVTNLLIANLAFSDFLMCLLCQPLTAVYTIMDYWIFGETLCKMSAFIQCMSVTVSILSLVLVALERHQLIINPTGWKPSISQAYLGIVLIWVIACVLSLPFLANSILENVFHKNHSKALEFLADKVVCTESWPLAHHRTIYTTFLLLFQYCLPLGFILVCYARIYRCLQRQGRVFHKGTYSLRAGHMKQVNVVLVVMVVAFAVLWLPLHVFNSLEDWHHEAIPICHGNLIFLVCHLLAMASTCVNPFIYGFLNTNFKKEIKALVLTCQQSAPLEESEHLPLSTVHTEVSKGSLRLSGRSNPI

*1 amine or outer side, *2 acyl side, *3 side chain or, on linkers, in order; H or OH if unused. Side-chain parts run from the residue outwards. The star is where a group is joined. C18 diacid = O=C(O)CCCCCCCCCCCCCCCCC(=O)*; γGlu = O=C(O)[C@H](CCC(=O)[*:2])N[*:1]; Isovaleryl = CC(C)CC(=O)*; Ahx = NCCCCCC(=O)O

As a reminder, the Ki is the equilibrium dissociation constant of an inhibitor or competing ligand from its target. Higher therefore signals weaker binding.

B1: Compound 114 (peptide)
peptide: Isovaleryl-APAK([Ahx-γGlu-C18 diacid])PEEDATPEEIQRYYVSLRHYYNWLTRQRY-NH2
SMILES: CC[C@H](C)[C@H](NC(=O)[C@H](CCC(=O)O)NC(=O)[C@H](CCC(=O)O)NC(=O)[C@@H]1CCCN1C(=O)[C@@H](NC(=O)[C@H](C)NC(=O)[C@H](CC(=O)O)NC(=O)[C@H](CCC(=O)O)NC(=O)[C@H](CCC(=O)O)NC(=O)[C@@H]1CCCN1C(=O)[C@H](CCCCNC(=O)CCCCCNC(=O)CC[C@H](NC(=O)CCCCCCCCCCCCCCCCC(=O)O)C(=O)O)NC(=O)[C@H](C)NC(=O)[C@@H]1CCCN1C(=O)[C@H](C)NC(=O)CC(C)C)[C@@H](C)O)C(=O)N[C@@H](CCC(N)=O)C(=O)N[C@@H](CCCNC(=N)N)C(=O)N[C@@H](Cc1ccc(O)cc1)C(=O)N[C@@H](Cc1ccc(O)cc1)C(=O)N[C@H](C(=O)N[C@@H](CO)C(=O)N[C@@H](CC(C)C)C(=O)N[C@@H](CCCNC(=N)N)C(=O)N[C@@H](Cc1c[nH]cn1)C(=O)N[C@@H](Cc1ccc(O)cc1)C(=O)N[C@@H](Cc1ccc(O)cc1)C(=O)N[C@@H](CC(N)=O)C(=O)N[C@@H](Cc1c[nH]c2ccccc12)C(=O)N[C@@H](CC(C)C)C(=O)N[C@H](C(=O)N[C@@H](CCCNC(=N)N)C(=O)N[C@@H](CCC(N)=O)C(=O)N[C@@H](CCCNC(=N)N)C(=O)N[C@@H](Cc1ccc(O)cc1)C(N)=O)[C@@H](C)O)C(C)C
In assay [1], B1 registered a Ki of 0.95 nM. Also, the “EC50, HTRF cAMP Gi assay” value was greater than 5000 nM in assay [2], 0.186 nM in assay [3], greater than 5000 nM in assay [4] and greater than 5000 nM in assay [5].

B2: Compound 118 (peptide)
peptide: Isovaleryl-APEK([Ahx-γGlu-C18 diacid])PPEDAEPEEIQRYYVSLRHYYNWLTRQRY-NH2
SMILES: CC[C@H](C)[C@H](NC(=O)[C@H](CCC(=O)O)NC(=O)[C@H](CCC(=O)O)NC(=O)[C@@H]1CCCN1C(=O)[C@H](CCC(=O)O)NC(=O)[C@H](C)NC(=O)[C@H](CC(=O)O)NC(=O)[C@H](CCC(=O)O)NC(=O)[C@@H]1CCCN1C(=O)[C@@H]1CCCN1C(=O)[C@H](CCCCNC(=O)CCCCCNC(=O)CC[C@H](NC(=O)CCCCCCCCCCCCCCCCC(=O)O)C(=O)O)NC(=O)[C@H](CCC(=O)O)NC(=O)[C@@H]1CCCN1C(=O)[C@H](C)NC(=O)CC(C)C)C(=O)N[C@@H](CCC(N)=O)C(=O)N[C@@H](CCCNC(=N)N)C(=O)N[C@@H](Cc1ccc(O)cc1)C(=O)N[C@@H](Cc1ccc(O)cc1)C(=O)N[C@H](C(=O)N[C@@H](CO)C(=O)N[C@@H](CC(C)C)C(=O)N[C@@H](CCCNC(=N)N)C(=O)N[C@@H](Cc1c[nH]cn1)C(=O)N[C@@H](Cc1ccc(O)cc1)C(=O)N[C@@H](Cc1ccc(O)cc1)C(=O)N[C@@H](CC(N)=O)C(=O)N[C@@H](Cc1c[nH]c2ccccc12)C(=O)N[C@@H](CC(C)C)C(=O)N[C@H](C(=O)N[C@@H](CCCNC(=N)N)C(=O)N[C@@H](CCC(N)=O)C(=O)N[C@@H](CCCNC(=N)N)C(=O)N[C@@H](Cc1ccc(O)cc1)C(N)=O)[C@@H](C)O)C(C)C
Consider B2, for which the Ki in assay [1] was found to be 1 nM. Besides, the “EC50, HTRF cAMP Gi assay” value in assay [2] is greater than 5000 nM; in assay [3], 0.161 nM; in assay [4], greater than 5000 nM; in assay [5], greater than 5000 nM.
